Assay results as given in paper PMC12329598.

Tests used:
[1] = target: 1-442 Rap1GAP1a-RlucII, P47736-1; assay: ebBRET (Rap1GAP1a-RlucII recruitment to rGFP-CaaX at the plasma membrane); conditions: A293 cells with μ-opioid receptor, 48 h post-transfection, read off a plot
[2] = target: 1-442 Rap1GAP1a-RlucII, P47736-1; assay: ebBRET (agonist-induced net BRET, Rap1GAP1a-RlucII recruitment to the plasma membrane); conditions: 10 μM DAMGO; parent: est. 0.22; read off a plot
[3] = target: 1-442 Rap1GAP1a-RlucII, P47736-1; assay: ebBRET (Rap1GAP1a-RlucII recruitment to the plasma membrane); conditions: A293 cells, parent: est. 0.17, read off a plot
[4] = double mutant in Gαo(Q205L) background, Gαo(Q205L) bar in same panel est. 0.39

Chain of 1-442 Rap1GAP1a-RlucII, P47736-1 (P47736 1-442 S437A/S439A/S441A): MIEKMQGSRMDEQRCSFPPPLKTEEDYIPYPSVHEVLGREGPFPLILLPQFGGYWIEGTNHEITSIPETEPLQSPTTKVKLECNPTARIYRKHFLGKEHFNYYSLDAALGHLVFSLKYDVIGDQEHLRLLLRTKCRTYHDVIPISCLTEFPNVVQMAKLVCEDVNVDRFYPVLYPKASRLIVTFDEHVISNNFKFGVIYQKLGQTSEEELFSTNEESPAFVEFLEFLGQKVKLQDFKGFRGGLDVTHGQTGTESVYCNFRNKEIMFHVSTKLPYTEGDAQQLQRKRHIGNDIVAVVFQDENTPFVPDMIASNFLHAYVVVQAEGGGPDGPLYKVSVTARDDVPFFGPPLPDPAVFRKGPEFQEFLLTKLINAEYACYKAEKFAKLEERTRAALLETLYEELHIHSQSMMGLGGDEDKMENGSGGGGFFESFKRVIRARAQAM

| Substance | response ([1]; 10 μM DAMGO, parent: est. 0.32) [BRET ratio] | response ([1]; vehicle, parent: est. 0.12) [BRET ratio] | response [2] [Net BRET] | response ([3]; no-Gαo control bar est. 0.07) [BRET ratio] | response [3, 4] [BRET ratio] |
| --- | --- | --- | --- | --- | --- |
| HA-Gαo^(WT) (from UniProt P09471) A221D | 0.18 | 0.04 | 0.14 |  |  |
| HA-Gαo^(WT) (from UniProt P09471) E237K | 0.11 | 0.04 | 0.07 |  |  |
| HA-Gαo^(WT) (from UniProt P09471) E246G | 0.06 | 0.035 | 0.03 |  |  |
| HA-Gαo^(WT) (from UniProt P09471) G203E | 0.08 | 0.035 | 0.04 |  |  |
| HA-Gαo^(WT) (from UniProt P09471) N242T | 0.3 | 0.07 | 0.23 |  |  |
| HA-Gαo^(WT) (from UniProt P09471) Q205L |  |  |  | 0.39 |  |
| HA-Gαo^(WT) (from UniProt P09471) Q205L; A221D |  |  |  |  | 0.37 |
| HA-Gαo^(WT) (from UniProt P09471) Q205L; E237K |  |  |  |  | 0.14 |
| HA-Gαo^(WT) (from UniProt P09471) Q205L; E246G |  |  |  |  | 0.08 |
| HA-Gαo^(WT) (from UniProt P09471) Q205L; G203E |  |  |  |  | 0.085 |
| HA-Gαo^(WT) (from UniProt P09471) Q205L; N242T |  |  |  |  | 0.41 |
| HA-Gαo^(WT) (from UniProt P09471) Q205L; R209C |  |  |  |  | 0.035 |
| HA-Gαo^(WT) (from UniProt P09471) Q205L; R209H |  |  |  |  | 0.04 |
| HA-Gαo^(WT) (from UniProt P09471) R209C | 0.04 | 0.03 | 0.012 |  |  |
| HA-Gαo^(WT) (from UniProt P09471) R209H | 0.045 | 0.035 | 0.015 |  |  |
